Drawing on patent US20200248181, this text covers Kd for two sequences.

The subject of the series is gluten (wheat allergen). Nature of the series: SPR. The following applies: 20-mer poly(dA) added at 5' end for SPR immobilization; 40 mM HEPES pH 7.5, 125 mM NaCl, 5 mM KCl, 1 mM MgCl2, 0.01% Tween 20; aptamer immobilized via poly(dA)/biotin-poly(dT).

Broadly, the Kd is the constant that tells how readily two partners part at equilibrium. Read a low Kd as higher affinity.

For the sequence GAGGTTGGGTGGGGGAGG [Aptamer 2], the Kd was found to be 0.0186 µM.

Take “GAGGTTGGGTGGGGGAGGCAGCATGCGGGA [Aptamer 1]”: the Kd stood at 0.0145 µM.
